Publication PMC5620376

Legend:
Assay in all cases: pull-down
GST-Bet1 (yeast) = target: T1, GST-Bet1 (yeast)
T1 sequence (P22804 whole entry, looked up): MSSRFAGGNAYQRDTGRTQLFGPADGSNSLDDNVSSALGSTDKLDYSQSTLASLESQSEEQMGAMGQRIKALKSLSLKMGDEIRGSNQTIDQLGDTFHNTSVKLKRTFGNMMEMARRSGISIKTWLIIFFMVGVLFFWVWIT

GST-Gos1 (yeast) = target: T2, GST-Gos1 (yeast)
T2 sequence (P38736 whole entry, looked up): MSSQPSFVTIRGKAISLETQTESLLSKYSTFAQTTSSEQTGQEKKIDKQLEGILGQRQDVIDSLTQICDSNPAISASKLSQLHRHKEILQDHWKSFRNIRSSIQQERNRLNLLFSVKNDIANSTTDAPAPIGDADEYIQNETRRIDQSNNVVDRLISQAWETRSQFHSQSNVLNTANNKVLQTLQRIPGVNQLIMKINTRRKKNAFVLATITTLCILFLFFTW

GST-Sed5 (yeast) = target: GST-Sed5 (yeast)
GST-Sft1 (yeast) = target: T3, GST-Sft1 (yeast)
T3 sequence (P43682 whole entry, looked up): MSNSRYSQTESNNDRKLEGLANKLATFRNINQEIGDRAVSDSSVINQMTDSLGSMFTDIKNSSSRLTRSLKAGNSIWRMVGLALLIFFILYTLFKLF

GST-Ykt6 (yeast) = target: T4, GST-Ykt6 (yeast)
T4 sequence (P36015 whole entry, looked up): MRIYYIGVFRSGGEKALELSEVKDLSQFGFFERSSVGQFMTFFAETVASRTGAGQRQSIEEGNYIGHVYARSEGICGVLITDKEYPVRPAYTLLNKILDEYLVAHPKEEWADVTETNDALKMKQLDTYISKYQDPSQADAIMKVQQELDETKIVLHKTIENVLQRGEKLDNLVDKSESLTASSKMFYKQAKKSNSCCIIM

GST = target: GST

GST-Sed5 (yeast), sequence (Q01590 whole entry): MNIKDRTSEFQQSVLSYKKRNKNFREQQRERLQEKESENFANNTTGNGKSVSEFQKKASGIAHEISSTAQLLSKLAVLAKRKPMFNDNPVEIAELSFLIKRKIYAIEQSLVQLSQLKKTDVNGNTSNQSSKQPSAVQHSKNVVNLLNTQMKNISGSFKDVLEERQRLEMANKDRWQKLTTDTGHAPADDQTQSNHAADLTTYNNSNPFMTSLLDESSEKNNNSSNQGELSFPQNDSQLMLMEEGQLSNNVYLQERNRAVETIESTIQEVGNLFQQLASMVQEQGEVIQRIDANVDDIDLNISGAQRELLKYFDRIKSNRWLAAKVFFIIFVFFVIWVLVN

B1: Coy1ΔTM-HA (domain or fragment)
chain: MDTSVYSHALDIWAKADLTNLQRELDADVIEIKDKETLSLNSRKSLATETKKFKKLEPEEKLNNVNKIIKQYQREIDNLTQRSKFSEKVLFDVYEKLSEAPDPQPLLQSSLEKLGKIDDSKELKEKISYLEDKLAKYADYETLKSRLLDLEQSSAKTLAKRLTAKTQEINSTWEEKGRNWKEREADLLKQLTNVQEQNKALEAKISKNIDIEGNGNEDGDQENNQKEVSTRIAEYNLVTQELETTQARIYQLEKRNEELSGALAKATSEAEKETELHAKELKLNQLESENALLSASYEQERKSTSHAINELKEQLNSVVAESESYKSELETVRRKLNNYSDYNKIKEELSALKKIEFGVNEDDSDNDIRSEDKNDNTFESSLLSANKKLQATLAEYRSKSTAQEEERNELKKSVDQLKQQIATLKEANEKLETDLEKVENVSPHFNETASMMSGVTRQMNNRTSHKMSPTSSIIGIPEDGELSGNQSTILPIVTKQRDRFRSRNMDLEKQLRQGNSEKGKLKLEISKLKGDNTKLYERIRYLQSYNNNNAPVNQSTERIDVESQYSRVYDESLHPMANFRQNELNHYKNKKLSALEKLFSSFAKVILQNKMTR
percent of input recovered (GST-Bet1 (yeast)): < 1%
percent of input recovered (GST-Gos1 (yeast)): 15%
percent of input recovered (GST-Sed5 (yeast)): 15%
percent of input recovered (GST-Sft1 (yeast)): 15%
percent of input recovered (GST-Ykt6 (yeast)): < 1%
percent of input recovered (GST): < 1%
